Experimental data as given in publication PMC10318062 (Nature Communications, 2023).

Molecular target: SARS-CoV-2 hexaproline stabilized pre-fusion spike glycoprotein (S6P) (SARS-CoV-2, ancestral (Wuhan-Hu-1 …, UniProt P0DTC2, stabilised))

B1: COVA2-43 (antibody, V domains shown)
VH: QVQLVQPGAEVKKPGASVKVSCKASGYTFTSYGISWVRQAPGQGLEWMGWISAYNGDTNYAQKLQGRVTMTTDTSTSTAYMELRSLKSDDTAVYYCARFDYGYPYSSWSVLSIDYWGQGTLVTVSS
VL: DIVMTQSPSSLSASVGDRVTITCRASQGIRNDLGWYQQKPGKAPKRLIYAASSLQSGVPSRFSGSGSGTEFTLTISSLQPEDFATYYCLQHNSYPLTFGGGTKLEIK
binding result: binds

B2: C144 (antibody, V domains shown)
VH: EVQLVESGGGLIQPGGSLRLSCAASGFTVSNNYMSWVRQAPGKGLEWVSVIYSGGSTYYADSVKGRFTISRDKSKNTLYLQMNRLRAEDTAVYYCAREGEVEGYNDFWSGYSRDRYYFDYWGQGTLVTVSS
VL: QSALTQPASVSGSPGQSITISCTGTSSDVGGYNYVSWYQQHPGKAPKLMIYDVSNRPSGVSNRFSGSKSGNTASLTISGLQAEDEADYYCSSYTSSSTRVFGTGTKVTVL
binding result: binds

B3: BD-604 (antibody, V domains shown)
VH: EVQLVESGGGLIQPGGSLRLSCAASGIIVSSNYMTWVRQAPGKGLEWVSVIYSGGSTFYADSVKGRFTISRDNSKNTLYLQMSSLRAEDTAVYYCARDLGPYGMDVWGQGTTVTVSS
VL: DIQLTQSPSFLSASVGDRVTITCRASQGISSDLAWYQQKPGKAPNLLIYAASTLQSGVPSRFSGSGSGTEFTLTISSLQPEDFATYYCQQLNSDLYTFGQGTKLEIK
binding result: binds

B4: CC12.1 (antibody, V domains shown)
VH: EVQLVESGGGLIQPGGSLRLSCAASGLTVSSNYMSWVRQAPGKGLEWVSVIYSGGSTFYADSVKGRFTISRDNSKNTLYLQMNSLRAEDTAVYYCARDLDVYGLDVWGQGTTVTVSS
VL: DIVMTQSPSFLSASVGDRVTITCRASQGISSYLAWYQQKPGKAPKLLIYAASTLQSGVPSRFSGSGSGTEFTLTISSLQPEDFATYYCQQLNSYPPKFTFGPGTKVEIK
binding result: binds

B5: C002 (antibody, V domains shown)
VH: EVQLVESGGGVVQPGRSLRLSCAASGFTFSIYGMHWVRQAPGKGLEWVAVISYDGSNKYYADSVKGRFTISRDNSKNTLYLQMNSLRAEDTAVYYCAKEGRPSDIVVVVAFDYWGQGTLVTVSS
VL: not shown
binding result: binds

B6: COVA2-28 (antibody, V domains shown)
VH: EVQLVESGGGVVQPGRSLRLSCAASGFTFSSYGMHWVRQAPGKGLEWVAVIWYDGSNKYYADSVKGRFTISRDNSKNTLYLQMDSLRAEDTAMYYCAKDKAPPCSSGWYYFDYWGQGTLVTVSS
VL: not shown
binding result: binds

B7: COVA2-10 (antibody, V domains shown)
VH: EVQLLESGGGLVQPGGSLKLSCAASGFTFSSYAMSWVRQAPGKGLEWVSAISGSGSNTYYADSVKGRFTISRDNSKNTLYLQMNSLRAEDTAVYYCAKGLRGQQLVIPTEYFQHWGQGTLVTVSS
VL: not shown
binding result: binds

B8: C105 (antibody, V domains shown)
VH: QVQLVESGGGLIQPGGSLRLSCAASGFTVSSNYMSWVRQAPGKGLEWVSVIYSGGSTYYADSVKGRFTISRDNSKNTLYLQMNSLRAEDTAVYYCARGEGWELPYDYWGQGTLVTVSS
VL: QSALTQPPSGSGSPGQSVTISCTGTSSDVGGYKYVSWYQQHPGKAPKLMIYEVSKRPSGVPDRFSGSKSGNTASLTVSGLQAEDEADYYCSSYEGSNNFVVFGGGTKLTVL
binding result: binds

B9: COVA1-18 (antibody, V domains shown)
VH: EVQLVESGGGLVQPGGSLRLSCAASGFTVSSNYMSWVRQAPGKGLEWVSVIYSGGSTYYADSVKGRFTISRDNSKNTLYLQMNSLRAEDTAVYYCARVEWAAAGTFYWGQGTLVTVSS
VL: QSALTQEPSLTVSPGGTVTLTCGSSTGAVTSGHYPYWFQQKPGQAPRTLIYDTSNKRSWTPARFSGSLLGGKAALTLSGAQPEDEAEYYCLLSYSGVWVFGGGTKLTVL
binding result: binds

B10: COVA2-34 (antibody, V domains shown)
VH: QVQLVESGGGVVQPGRSLRLSCAASGFTFSSYAMHWVRQAPGKGLEWVAVISYDGSNKYYADSVKGRFTISRDNSKNTLYLQMNSLRAEDTAVYYCARSASGSYYGAFDYWGQGTLVTVSS
VL: QTVVTQPASVSGSPGQSITISCTGTSSDVGGYNYVSWYQQHPGKAPKLMIYDVSNRPSGVSNRFSGSKSGNTASLTISGLQAEDEADYYCSSYTSSSTLGLYVFGTGTKVTVL
binding result: binds

B11: COVA2-41 (antibody, V domains shown)
VH: EVQLVESGGGLVKPGGSLRLSCSASGFTFSNYNMDWVRQAPGKGLEWVSSISSSSSYIYLADSVKGRFTISRDNAKNSLYLQMNSLRAEDTAVYYCARVQKDIVVVPVALADYYYYGMDVWGQGTTVTVSS
VL: DIVMTQSPATLSVSPGERATLSCRASQSVSSNLAWYQQKPGQAPRLLIYGASTRATGIPARFSGSGSGTEFTLTISSLQPEDFAVYYCQQCYNWPPWTFGQGTRVEFK
binding result: binds

B12: COVA3-08 (antibody, V domains shown)
VH: EVQLVESGPGLVKPSETLSLTCTVSGGSISSYYWSWIRQPPGKGLEWIGYIYYSGSTNYNPSLKSRVTISVDTSKNQFSLRLSSVTAADTAVYYCARGPAATYYYYMDVWGKGTMVTVSS
VL: not shown
binding result: binds

B13: BD-236 (antibody, V domains shown)
VH: EVQLVESGGGLIQPGGSLRLSCAASGITVSSNYMSWVRQAPGKGLEWVSVIYSGGSTDYADSVKGRFTISRDKSKNTLYLQMNSLRAEDTAVYYCARDLGEAGGMDVWGQGTTVTVSS
VL: AIQLTQSPSSLSASVGDRVTITCRASQGISSYLAWYQQKPGKAPKLLIYAASTLQSGVPSRFSGSGSGTDFTLTISSLQPEDFATYYCQQLNSYPPAFGGGTKVEIK
binding result: binds

B14: BD-368-2 (antibody, V domains shown)
VH: EVQLLESGGGVVQPGGSLRLSCAASGFAFTTYAMNWVRQAPGRGLEWVSAISDGGGSAYYADSVKGRFTISRDNSKNTLYLQMNSLRAEDTAVYYCAKTRGRGLYDYVWGSKDYWGQGTLVTVSS
VL: AIQLTQSPSSLSASVGDRVTITCRASQGISSYLAWYQQKPGKAPKLLIYAASTLQSGVPSRFSGSGSGTDFTLTISSLQPEDFATYYCQQLNSYPPAFGGGTKVEIK
binding result: binds

B15: COVA1-07 (antibody, V domains shown)
VH: QVQLVESGAEVKKPGSSVKVSCKASGGTLSSYAITWVRQAPGQGLEWVGGIIPIFGTANYAQKFQGRVTITADESTSTAYMELSSLRSEDTAVYYCARVGAYDSSGYSNDYWGQGTLVTVSS
VL: DIQLTQSPATLSLSPGERATLSCRASQSVSSYLAWYQQKPGQAPRLLIYDASNRATGIPARFSGSGSGTDFTLTISSLEPEDFAVYYCQQRSNWPPRVTFGGGTKVEIK
binding result: binds

B16: COVA2-18 (antibody, V domains shown)
VH: EVQLVQSGAEVKKPGSSVKVSCKASGGTFSSYAISWVRQAPGQGLEWMGGIIPIFGTTNYAQKFQGRVTITTDESTSTAYMELSSLRSEDTAVYYCARVYSYDSSGYYLEYWGQGTRVTVSS
VL: EIVLTQSPATLSLSPGERATLSCRASQSVSSYLAWYQQKPGQAPRLLIYDASNRATGIPARFSGSGSGTDFTLTISSLEPEDFAVYYCQQRSNWPPSITFGQGTRLEIK
binding result: binds

B17: COVA2-14 (antibody, V domains shown)
VH: QVQLVQSGAEVKKPGSSVKVSCKASGGTFSSYAIIWVRQAPGQGLEWMGGIIPIFGTANYAQKFQGRVTITTDESTSTAYMELSSLRSEDTAVYYCARVRYYDSSGYYEDYWGQGTLVTVSS
VL: EIVLTQSPATLSLSPGERATLSCRASQSVSSYLAWYQQEPGQAPRLLIYDASNRATGIPARFSGSGSGTDFTLTISSLEPEDFAVYYCQQRSNWPPMYTFGQGTKVEIK
binding result: binds

B18: C110 (antibody, V domains shown)
VH: QVQLQQSGAEVKKPGESLKISCKGSGYSFTSYWIGWVRQMPGKGLEWMGIIYPGDSDTRYSPSFQGQVTISADKSISTAYMQWSSLKASDTAMYYCARSFRDDPRIAVAGPADAFDIWGQGTMVTVSS
VL: DIQMTQSPSTLSASVGDRVTITCRASQSISYWLAWYQQKPGKAPKLLIYQASSLESGVPSRFSGSESGTEFTLTISSLQPDDFATYYCQQYNSYPYTFGQGTKLEIK
binding result: binds

B19: BD-629 (antibody, V domains shown)
VH: EVQLVESGGGLIQPGGSLRLSCAASEFIVSRNYMSWVRQAPGKGLEWVSVIYSGGSTYYADSVKGRFTISRDNSKNTLNLQMNSLRAEDTAVYYCARDYGDYYFDYWGQGTLVTVSS
VL: EIVLTQSPGTLSLSPGERATLSCRASQGVSSFLAWYQQKPGQAPRLLIHGASSRATGIPDRFSGSGSGTDFTLTITRLEPEDFAVYYCQQYGSSPRTFGQGTKVEIK
binding result: binds

B20: CC12.3 (antibody, V domains shown)
VH: QVQLVESGGGLIQPGGSLRLSCAASGFTVSSNYMSWVRQAPGKGLEWVSVIYSGGSTFYADSVKGRFTISRDNSKSTLYLQMNSLRVEDTAVYYCARDFGDFYFDYWGQGTLVTVSS
VL: not shown
binding result: binds

B21: C121 (antibody, V domains shown)
VH: not shown
VL: QSALTQPASVSGSPGQSITISCTGTSSDVGSYNLVSWYQQHPGKAPKLMIYEGSKRPSGVSNRFSGSKSGNTASLTISGLQAEDEADYYCCSYAGSSTLVFGGGTKLTVL
binding result: binds

B22: COVA2-39 (antibody, V domains shown)
VH: QVQLVETGGGLIQPGGSLRLSCAASGFTVSSNYMSWVRQAPGKGLEWVSVIYTGGTTYYADSVKGRFTISRDNSKNTLYLQMNSLRAEDTAVYYCARAHVDTAMVESGAFDIWGQGTRVTVSS
VL: QSALTQPASVSGSPGQSITISCTGTSSDVGSYNLVSWYQQHPGKAPKLMIYEVTKRPSGVSNRFSGSKSGNTASLTISGLQAEDEADYYCCSYAGSSTWVFGGGTKLTVL
binding result: binds

B23: C119 (antibody, V domains shown)
VH: QVQLVQSGAEVKKPGASVKVSCKASGYTFTSYYMHWVRQAPGQGLEWMGIINPSGGSTSYAQKLQGRVTMTRDTSTSTVYMELSSLRSEDTAVYYCARANHETTMDTYYYYYYMDVWGKGTTVTVSS
VL: QSALTQPASVSGSPGQSITISCTGTSSDVGGYKYVSWYQRHPGKAPKLMIYDVSNRPSGVSNRFSGSKSGNTASLTISGLQAEDEADYYCSSYTSSSTSVVFGGGTQLTVL
binding result: binds
